Target: T1, HLA-A*02:01 on TAP deficient T2 cells (human)
T1 construct: whole, on cells; Endogenous HLA class I of T2 cells, detected with the pan HLA antibody W6/32
Experiment: T2 cell HLA stabilization assay, flow cytometry with pan HLA antibody W6/32
Protocol: HLA-A*02:01 TAP deficient T2 cells (2×10⁵ in 200 μL) were incubated with peptides (25 μg per ml in 10% DMSO in PBS) in AIM-V plus 1% human serum at 25° C. overnight to facilitate peptide binding by reducing HLA turnover. The following day the cells were returned to 37° C. for 5 hours then stained with a pan HLA antibody (FITC-conjugated HLA, B, C; clone W6/32). HLA class I expression was measured by flow cytometry, and the percent increase in mean fluorescence intensity over cells incubated with 10% DMSO alone was calculated.

binding result | Binder
binds | YMYNKVAVL (Peptide added to T2 cells at 25 ug per ml; also called one of the SYY peptides; candidate therapeutic peptide) [YMYNKVAVL peptide (Atl2/ATL2 alternative splicing variant)]
binds | SMLEKTALL (Peptide added to T2 cells at 25 ug per ml; also called one of the SYY peptides; candidate therapeutic peptide) [SMLEKTALL peptide (Sfxn5/SFXN5 alternative splicing variant)]

From US20250352576A1 (University of California, published 2025)
